Drawing on article PMC2720833, this text covers KD by Biacore relative to KD by ITC (fold) and half-life of the complex for 1 substance.

For the experiment, the target named is GST-Cullin5 (NTD), N-terminal domain of murine cullin5 (Met1-Leu385) with V341R and L345D (murine) (UniProt Q9D5V5). As to the kind of experiment: SPR. (In general: Surface plasmon resonance follows binding to a sensor surface in real time, without labels.)
Chain of GST-Cullin5 (NTD), N-terminal domain of murine cullin5 (Met1-Leu385) with V341R and L345D (murine) (Q9D5V5 1-385 V341R/L345D): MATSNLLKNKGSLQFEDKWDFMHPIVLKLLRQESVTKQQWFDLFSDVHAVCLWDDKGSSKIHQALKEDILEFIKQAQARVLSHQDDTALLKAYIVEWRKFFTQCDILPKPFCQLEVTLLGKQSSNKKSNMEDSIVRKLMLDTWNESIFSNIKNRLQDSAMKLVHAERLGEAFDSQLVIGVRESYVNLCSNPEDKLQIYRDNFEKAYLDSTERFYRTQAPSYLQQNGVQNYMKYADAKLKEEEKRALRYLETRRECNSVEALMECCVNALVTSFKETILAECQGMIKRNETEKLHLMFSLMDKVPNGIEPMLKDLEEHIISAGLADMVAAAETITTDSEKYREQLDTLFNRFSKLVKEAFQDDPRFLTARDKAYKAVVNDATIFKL

In the case of “SOCS3 box/elonginBC ternary complex (from UniProt Q15370 1-118; P83940 17-112)”, the KD by Biacore relative to KD by ITC (fold) stood at 4 fold and the half-life of the complex worked out at 10 s.
